Experimental data published in the RNAGym collection of RNA variant scans (doi:10.1093/molbev/msab373).

B1: Azoarcus group I ribozyme (parent)
chain: GUGCCUUGCGCCGGGAAACCACGCAAGGGAUGGUGUCAAAUUCGGCGAAACCUAAGCGCCCGCCCGGGCGUAUGGCAACGCCGAGCCAAGCUUCGGCGCCUGCGCCGAUGAAGGUGUAGAGACUAGACGGCACCCACCUAAGGCAAACGCUAUGGUGAAGGCAUAGUCCAGGGAGUGGCGAAAGUCACACAAACCGG

Variants of: B1
Test: reverse-splicing fitness (ratio to wild type); higher = more active; in vitro selection; Mg2+ level not given
How it was run: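 An in vitro group I ribozyme library with randomized positions was T7-transcribed and gel-purified. In triplicate, 10 pmol RNA in EPPS pH 7.5 was reacted with 50 pmoles of a 30-nt RNA substrate for 1 h at 37 °C across several added MgCl2 levels (1–48 mM), then stopped with EDTA. Products were reverse transcribed from a substrate-complementary primer, PCR-amplified and sequenced (HiSeq 4000). Fitness is a variant's read proportion after selection over that before, normalised to wild type.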

Variant	reverse-splicing fitness
GUGCCUUGCGCCGGGAAACCACGCAAGGGAUGGUGUCAAAUUCGGCGAAACCUAAGCGCCCGCCCGGGCGUAUGGCAACGCCGAGCCAAGCUUCGGCGCCUGCGCCGAUGUAGGUGUAGGGACUAGACGGCACCCACCUAAGGCAAACGGUAUGGUGAAGGCAUAGUCUAGGGAGAGGCGAAAGUCACACAAACCGG	0.0137
GUGCCUUGCGCCGGGAAACCACGCAAGGGAUGGUGUCAAAUUCGGCGAAACCUAAGCGCCCGCCCGGGCGUAUGGCAACGCCGAGCCAAGCUUCGGCGCCUGCGCCGAUGUAGGUGUAGGGACUAGACGGCACCCACCUAAGGCAAACGAUAUGGUGAAGGCAUAGUCUAGGGAGAGGCGAAAGUCACACAAACCGG	0.0295
GUGCCUUGCGCCGGGAAACCACGCAAGGGAUGGUGUCAAAUUCGGCGAAACCUAAGCGCCCGCCCGGGCGUAUGGCAACGCCGAGCCAAGCUUCGGCGCCUGCGCCGAUGUAGGUGUAGGGACUAGACGGCACCCACCUAAGGCAAACGAUAUGGUGAAGGCAUAGUCUAGGGAGCGGCGAAAGUCACACAAACCGG	0.0205
GUGCCUUGCGCCGGGAAACCACGCAAGGGAUGGUGUCAAAUUCGGCGAAACCUAAGCGCCCGCCCGGGCGUAUGGCAACGCCGAGCCAAGCUUCGGCGCCUGCGCCGAUGUAGGUGUAGGGACUAGACGGCACCCACCUAAGGCAAACGAUAUGGUGAAGGCAUAGUCUAGGGAGGGGCGAAAGUCACACAAACCGG	0.0082
GUGCCUUGCGCCGGGAAACCACGCAAGGGAUGGUGUCAAAUUCGGCGAAACCUAAGCGCCCGCCCGGGCGUAUGGCAACGCCGAGCCAAGCUUCGGCGCCUGCGCCGAUGUAGGUGUAGGGACUAGACGGCACCCACCUAAGGCAAACGAUAUGGUGAAGGCAUAGUCGAGGGAGUGGCGAAAGUCACACAAACCGG	0.0231
GUGCCUUGCGCCGGGAAACCACGCAAGGGAUGGUGUCAAAUUCGGCGAAACCUAAGCGCCCGCCCGGGCGUAUGGCAACGCCGAGCCAAGCUUCGGCGCCUGCGCCGAUGUAGGUGUAGGGACUAGACGGCACCCACCUAAGGCAAACGAUAUGGUGAAGGCAUAGUCAAGGGAGUGGCGAAAGUCACACAAACCGG	0.015
GUGCCUUGCGCCGGGAAACCACGCAAGGGAUGGUGUCAAAUUCGGCGAAACCUAAGCGCCCGCCCGGGCGUAUGGCAACGCCGAGCCAAGCUUCGGCGCCUGCGCCGAUGUAGGUGUAGGGACUAGACGGCACCCACCUAAGGCAAACGAUAUGGUGAAGGCAUAGUCUAGGGAGUGGCGAAAGUCACACAAACCGG	0.0186
GUGCCUUGCGCCGGGAAACCACGCAAGGGAUGGUGUCAAAUUCGGCGAAACCUAAGCGCCCGCCCGGGCGUAUGGCAACGCCGAGCCAAGCUUCGGCGCCUGCGCCGAUGUAGGUGUAGGGACUAGACGGCACCCACCUAAGGCAAACGGUAUGGUGAAGGCAUAGUCUAGGGAGUGGCGAAAGUCACACAAACCGG	0.019
GUGCCUUGCGCCGGGAAACCACGCAAGGGAUGGUGUCAAAUUCGGCGAAACCUAAGCGCCCGCCCGGGCGUAUGGCAACGCCGAGCCAAGCUUCGGCGCCUGCGCCGAUGUAGGUGUAGGGACUAGACGGCACCCACCUAAGGCAAACGGUAUGGUGAAGGCAUAGUCGAGGGAGUGGCGAAAGUCACACAAACCGG	0.018
GUGCCUUGCGCCGGGAAACCACGCAAGGGAUGGUGUCAAAUUCGGCGAAACCUAAGCGCCCGCCCGGGCGUAUGGCAACGCCGAGCCAAGCUUCGGCGCCUGCGCCGAUGUAGGUGUAGGGACUAGACGGCACCCACCUAAGGCAAACGGUAUGGUGAAGGCAUAGUCAAGGGAGUGGCGAAAGUCACACAAACCGG	0.0142
GUGCCUUGCGCCGGGAAACCACGCAAGGGAUGGUGUCAAAUUCGGCGAAACCUAAGCGCCCGCCCGGGCGUAUGGCAACGCCGAGCCAAGCUUCGGCGCCUGCGCCGAUGUAGGUGUAGGGACUAGACGGCACCCACCUAAGGCAAACGGUAUGGUGAAGGCAUAGUCGAGGGAGGGGCGAAAGUCACACAAACCGG	0.00442
GUGCCUUGCGCCGGGAAACCACGCAAGGGAUGGUGUCAAAUUCGGCGAAACCUAAGCGCCCGCCCGGGCGUAUGGCAACGCCGAGCCAAGCUUCGGCGCCUGCGCCGAUGUAGGUGUAGGGACUAGACGGCACCCACCUAAGGCAAACGGUAUGGUGAAGGCAUAGUCGAGGGAGAGGCGAAAGUCACACAAACCGG	0.00621
GUGCCUUGCGCCGGGAAACCACGCAAGGGAUGGUGUCAAAUUCGGCGAAACCUAAGCGCCCGCCCGGGCGUAUGGCAACGCCGAGCCAAGCUUCGGCGCCUGCGCCGAUGUAGGUGUAGGGACUAGACGGCACCCACCUAAGGCAAACGGUAUGGUGAAGGCAUAGUCGAGGGAGCGGCGAAAGUCACACAAACCGG	0.00471
GUGCCUUGCGCCGGGAAACCACGCAAGGGAUGGUGUCAAAUUCGGCGAAACCUAAGCGCCCGCCCGGGCGUAUGGCAACGCCGAGCCAAGCUUCGGCGCCUGCGCCGAUGUAGGUGUAGGGACUAGACGGCACCCACCUAAGGCAAACGGUAUGGUGAAGGCAUAGUCCAGGGAGAGGCGAAAGUCACACAAACCGG	0.00753
GUGCCUUGCGCCGGGAAACCACGCAAGGGAUGGUGUCAAAUUCGGCGAAACCUAAGCGCCCGCCCGGGCGUAUGGCAACGCCGAGCCAAGCUUCGGCGCCUGCGCCGAUGUAGGUGUAGGGACUAGACGGCACCCACCUAAGGCAAACGGUAUGGUGAAGGCAUAGUCCAGGGAGCGGCGAAAGUCACACAAACCGG	0.0112
